According to publication PMC8228714, “Structural Constraint of Osteopontin Facilitates Efficient Binding to CD44” (Biomolecules, 2021):
Blank lines part the entries; values can stand above or below the molecule they belong to.

What was measured:
[1] = molecular target: truncated version of CD44v (MyBiosource); experiment: ELISA; receptor (CD44v or integrin) plated on a high-binding 96-well plate, GST-OPN in solution 2 h at room temperature; 10 mM HEPES pH 7.4, 150 mM NaCl, 2 mM MnCl2, 0.05% Tween 20; detection with HRP-anti-GST; constants from double-reciprocal plots
truncated version of CD44v (MyBiosource), sequence (P16070 21-742): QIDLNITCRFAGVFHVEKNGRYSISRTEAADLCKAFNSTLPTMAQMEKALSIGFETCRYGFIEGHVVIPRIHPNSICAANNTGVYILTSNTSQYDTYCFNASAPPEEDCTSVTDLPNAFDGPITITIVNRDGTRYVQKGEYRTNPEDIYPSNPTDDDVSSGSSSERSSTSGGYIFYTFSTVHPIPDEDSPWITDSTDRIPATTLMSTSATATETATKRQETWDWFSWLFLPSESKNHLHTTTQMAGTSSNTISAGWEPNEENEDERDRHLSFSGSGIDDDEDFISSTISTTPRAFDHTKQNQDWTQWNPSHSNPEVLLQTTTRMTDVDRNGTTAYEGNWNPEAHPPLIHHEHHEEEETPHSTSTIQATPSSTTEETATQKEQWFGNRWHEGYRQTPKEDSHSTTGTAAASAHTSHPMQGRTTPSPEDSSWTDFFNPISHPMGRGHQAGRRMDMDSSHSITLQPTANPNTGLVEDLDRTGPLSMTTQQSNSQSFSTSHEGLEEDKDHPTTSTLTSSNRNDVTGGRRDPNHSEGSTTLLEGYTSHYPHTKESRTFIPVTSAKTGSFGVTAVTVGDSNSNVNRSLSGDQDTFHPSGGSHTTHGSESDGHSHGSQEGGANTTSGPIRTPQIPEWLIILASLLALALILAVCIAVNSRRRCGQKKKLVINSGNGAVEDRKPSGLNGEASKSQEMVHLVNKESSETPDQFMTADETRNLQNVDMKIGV

[2] = molecular target: Recombinant extracellular domain of CD44 (aa21–606), His- and SUMO-tags (Lifespan Biosciences); experiment: as above
[3] = molecular target: extracellular portion of integrin αVβ3 (R&D Systems) (UniProt P06756); experiment: as above
[4] = molecular target: T1, extracellular portion of integrin α9β1 (R&D Systems) (UniProt Q13797 30-977; P05556 21-728); experiment: SPR; BIACORE 2000, CM5 chip; about 8000 RU of GST-OPN, CD44v or integrin α9β1 immobilised by amine coupling, BSA control flow cell; one protein in the flow, 50 μL/min, 120 s; 10 mM HEPES, 150 mM NaCl, pH 7.4, 0.05% Tween 20, 0.4 mM MnCl2, 25 °C; conditions: both partners purified
T1 construct: also called α9β1 extracellular domain; source: bought: R&D Systems
T1 sequence (Q13797 30-977, chain 1 of 2): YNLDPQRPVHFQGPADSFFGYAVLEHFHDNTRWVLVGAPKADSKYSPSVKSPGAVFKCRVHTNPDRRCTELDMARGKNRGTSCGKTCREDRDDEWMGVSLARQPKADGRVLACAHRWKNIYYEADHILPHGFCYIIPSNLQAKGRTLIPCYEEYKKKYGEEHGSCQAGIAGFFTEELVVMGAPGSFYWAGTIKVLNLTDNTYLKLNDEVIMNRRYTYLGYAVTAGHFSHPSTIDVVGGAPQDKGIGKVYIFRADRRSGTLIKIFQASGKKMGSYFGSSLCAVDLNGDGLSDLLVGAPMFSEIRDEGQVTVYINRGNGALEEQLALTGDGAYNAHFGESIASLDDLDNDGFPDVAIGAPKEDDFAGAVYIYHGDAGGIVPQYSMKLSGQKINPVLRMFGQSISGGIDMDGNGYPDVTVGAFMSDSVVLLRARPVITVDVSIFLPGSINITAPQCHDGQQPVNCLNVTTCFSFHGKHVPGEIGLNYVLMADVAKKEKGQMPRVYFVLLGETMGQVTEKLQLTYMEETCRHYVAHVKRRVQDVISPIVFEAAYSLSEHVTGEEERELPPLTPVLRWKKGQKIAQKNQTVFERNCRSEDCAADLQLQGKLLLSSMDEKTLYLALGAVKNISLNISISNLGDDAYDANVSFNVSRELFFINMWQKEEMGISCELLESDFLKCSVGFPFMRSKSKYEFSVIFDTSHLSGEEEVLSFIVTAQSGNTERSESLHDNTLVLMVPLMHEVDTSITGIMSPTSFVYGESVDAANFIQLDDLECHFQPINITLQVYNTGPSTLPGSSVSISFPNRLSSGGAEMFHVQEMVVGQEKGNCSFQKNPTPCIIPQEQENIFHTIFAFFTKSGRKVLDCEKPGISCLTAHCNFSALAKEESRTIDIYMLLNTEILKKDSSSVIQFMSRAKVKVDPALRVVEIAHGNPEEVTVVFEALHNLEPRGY
T1 sequence (P05556 21-728, chain 2 of 2): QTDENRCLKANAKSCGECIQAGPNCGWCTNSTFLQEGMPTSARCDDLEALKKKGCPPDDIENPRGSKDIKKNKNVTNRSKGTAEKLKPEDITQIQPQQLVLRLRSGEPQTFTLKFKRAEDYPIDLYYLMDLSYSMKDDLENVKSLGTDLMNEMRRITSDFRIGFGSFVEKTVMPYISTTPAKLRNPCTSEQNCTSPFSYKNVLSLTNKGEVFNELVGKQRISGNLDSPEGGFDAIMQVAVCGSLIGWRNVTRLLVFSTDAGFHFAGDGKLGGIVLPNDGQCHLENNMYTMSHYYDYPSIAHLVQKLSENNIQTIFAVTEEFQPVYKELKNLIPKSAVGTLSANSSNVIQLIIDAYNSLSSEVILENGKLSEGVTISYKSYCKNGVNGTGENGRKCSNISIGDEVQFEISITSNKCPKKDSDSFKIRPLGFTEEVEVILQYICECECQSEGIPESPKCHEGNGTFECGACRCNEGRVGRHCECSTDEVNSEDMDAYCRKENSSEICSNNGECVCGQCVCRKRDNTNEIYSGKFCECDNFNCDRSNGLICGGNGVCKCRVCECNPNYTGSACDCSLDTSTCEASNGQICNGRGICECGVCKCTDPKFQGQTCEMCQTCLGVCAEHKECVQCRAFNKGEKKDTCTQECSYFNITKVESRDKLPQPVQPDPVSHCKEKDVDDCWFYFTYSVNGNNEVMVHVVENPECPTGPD

half-maximal binding concentration (OPN titrated 7.8–500 ng, aVb3 200 ng, taken from the row above) [3]: 502 ng
Molecule: GST-OPNb (ligand)

binding result [4]: binds
B1: extracellular portion of integrin αVβ3 (R&D Systems) (receptor)
chain 1: FNLDVDSPAEYSGPEGSYFGFAVDFFVPSASSRMFLLVGAPKANTTQPGIVEGGQVLKCDWSSTRRCQPIEFDATGNRDYAKDDPLEFKSHQWFGASVRSKQDKILACAPLYHWRTEMKQEREPVGTCFLQDGTKTVEYAPCRSQDIDADGQGFCQGGFSIDFTKADRVLLGGPGSFYWQGQLISDQVAEIVSKYDPNVYSIKYNNQLATRTAQAIFDDSYLGYSVAVGDFNGDGIDDFVSGVPRAARTLGMVYIYDGKNMSSLYNFTGEQMAAYFGFSVAATDINGDDYADVFIGAPLFMDRGSDGKLQEVGQVSVSLQRASGDFQTTKLNGFEVFARFGSAIAPLGDLDQDGFNDIAIAAPYGGEDKKGIVYIFNGRSTGLNAVPSQILEGQWAARSMPPSFGYSMKGATDIDKNGYPDLIVGAFGVDRAILYRARPVITVNAGLEVYPSILNQDNKTCSLPGTALKVSCFNVRFCLKADGKGVLPRKLNFQVELLLDKLKQKGAIRRALFLYSRSPSHSKNMTISRGGLMQCEELIAYLRDESEFRDKLTPITIFMEYRLDYRTAADTTGLQPILNQFTPANISRQAHILLDCGEDNVCKPKLEVSVDSDQKKIYIGDDNPLTLIVKAQNQGEGAYEAELIVSIPLQADFIGVVRNNEALARLSCAFKTENQTRQVVCDLGNPMKAGTQLLAGLRFSVHQQSEMDTSVKFDLQIQSSNLFDKVSPVVSHKVDLAVLAAVEIRGVSSPDHVFLPIPNWEHKENPETEEDVGPVVQHIYELRNNGPSSFSKAMLHLQWPYKYNNNTLLYILHYDIDGPMNCTSDMEINPLRIKISSLQTTEKNDTVAGQGERDHLITKRDLALSEGDIHTLGCGVAQCLKIVCQVGRLDRGKSAILYVKSLLWTETFMNKENQNHSYSLKSSASFNVIEFPYKNLPIEDITNSTLVTTNVTWGIQPAPMPV
chain 2: GPNICTTRGVSSCQQCLAVSPMCAWCSDEALPLGSPRCDLKENLLKDNCAPESIEFPVSEARVLEDRPLSDKGSGDSSQVTQVSPQRIALRLRPDDSKNFSIQVRQVEDYPVDIYYLMDLSYSMKDDLWSIQNLGTKLATQMRKLTSNLRIGFGAFVDKPVSPYMYISPPEALENPCYDMKTTCLPMFGYKHVLTLTDQVTRFNEEVKKQSVSRNRDAPEGGFDAIMQATVCDEKIGWRNDASHLLVFTTDAKTHIALDGRLAGIVQPNDGQCHVGSDNHYSASTTMDYPSLGLMTEKLSQKNINLIFAVTENVVNLYQNYSELIPGTTVGVLSMDSSNVLQLIVDAYGKIRSKVELEVRDLPEELSLSFNATCLNNEVIPGLKSCMGLKIGDTVSFSIEAKVRGCPQEKEKSFTIKPVGFKDSLIVQVTFDCDCACQAQAEPNSHRCNNGNGTFECGVCRCGPGWLGSQCECSEEDYRPSQQDECSPREGQPVCSQRGECLCGQCVCHSSDFGKITGKYCECDDFSCVRYKGEMCSGHGQCSCGDCLCDSDWTGYYCNCTTRTDTCMSSNGLLCSGRGKCECGSCVCIQPGSYGDTCEKCPTCPDACTFKKECVECKKFDRGALHDENTCNRYCRDEIESVKELKDTGKDAVNCTYKNEDDCVVRFQYYEDSSGKSILYVVEEPECPKGPD
notes: also called aVb3; source: bought: R&D Systems

The remaining lines, values behind:

Molecule: Bacterial recombinant GST-OPNa (after deletion of the signal sequence) (from UniProt P10451-1 17-314) (ligand)
fold lower affinity than for LSBio CD44v [1]: 8 fold
half-maximal binding concentration (CD44 titrated 0–1000 ng, OPN 125 ng) [2]: 95.5 ng
half-maximal binding concentration (CD44 titrated 0–1000 ng, OPN 250 ng) [2]: 60.9 ng
half-maximal binding concentration (CD44 titrated 0–1000 ng, OPN 500 ng) [2]: 107 ng
half-maximal binding concentration (CD44 titrated 0–1000 ng, OPN 1000 ng) [2]: 151 ng
half-maximal binding concentration (CD44 titrated 0–1000 ng, OPN 2000 ng) [2]: 123 ng
half-maximal binding concentration (CD44 titrated 0–1000 ng, OPN 4000 ng) [2]: 138 ng
half-maximal binding concentration (OPN titrated 125–500 ng, CD44 65 ng) [2]: 0.77 ng
half-maximal binding concentration (OPN titrated 125–500 ng, CD44 125 ng) [2]: 8.09 ng
half-maximal binding concentration (OPN titrated 125–500 ng, CD44 250 ng) [2]: 40.5 ng
half-maximal binding concentration (OPN titrated 125–500 ng, CD44 500 ng) [2]: 50.8 ng
half-maximal binding concentration (OPN titrated 125–500 ng, CD44 1000 ng) [2]: 60.3 ng

Molecule: GST-OPNc (from UniProt P10451-3 17-287) (ligand)
half-maximal binding concentration (OPN titrated 7.8–500 ng, aVb3 200 ng, taken from the rows above) [3]: 314 ng
